B1: TRIM63 (parent)
chain: QRITQEQEKKLSFIEALIQQYQEQ

Variants of: B1
Test: protein stability index of a GFP-peptide fusion (GPS, HEK-293T) (PSI 1-6); higher = more stable
Conditions: c terminus: a fixed tail appended
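Also: lentivirally expressed fusions sorted by FACS into six bins by GFP to DsRed ratio, PSI derived from sequencing read proportions per bin multiplied by bin number.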

Protein stability index, by site and new letter:
L11: W 2.26, Q 3.08, T 2.54, D 3.94, K 1.56, R 2.24, E 3.98, G 2.53, H 2.8, C 2.35, S 2.63, F 1.87, M 1.82, N 2.79, A 3.13, I 2.64, P 2.78, Y 2.79, V 1.95
E15: D 2.19, W 2.5, R 2.16, S 2.12, I 1.6, F 1.92, G 2.44, A 2.82, T 2.32, N 2.04, Q 2.23, K 2.11, C 1.44, L 2.56, H 2.28, P 3.48, Y 2.34
I14: R 3.15, T 2.35, E 2.77, A 2.41, D 4.69, P 4.55, Y 2.87, H 3.2, G 4.31, Q 3.22, N 4.7, C 2.02, M 2.79, F 3, S 3.48, L 2.23
A16: E 2.95, Q 1.83, Y 2.31, L 1.7, N 2.69, V 1.76, M 3.77, D 3.16, S 2.45, W 2.37, G 3.33, R 2.63, P 4.08, C 2.46, K 2.25, F 2.57, H 2.45, I 3.03, T 2.15
S12: M 1.86, T 3.23, Y 1.85, H 2.9, G 2.71, P 3.91, V 1.81, F 2.56, I 2.12, W 1.57, N 2.74, K 1.91, L 2.39, A 3.19, C 2.25, D 2.86, Q 2.62
Q5: E 2.98, S 2.17, C 2.39, P 2.13, Y 2.27, K 2.82, W 1.24, T 2.58, N 2.32, G 2.62, V 1.94, L 1.68, H 2.05, F 1.73, R 2.24, A 2.5, D 2.74, M 2.33, I 2.39
Q20: A 2.11, C 2.23, W 2.01, K 5.33, E 1.09, P 3.43, F 2.6, M 2.36, S 2.4, R 2.28, V 1.42, D 2.35, G 3.11, I 1.67, T 2.67, N 2.93, L 2.43
L17: I 2.28, M 2.93, G 4.54, E 4.81, R 4.34, A 3.42, P 4.63, C 2.23, S 4.13, N 4.73, D 4.58, V 2.2, F 2.62, K 3.75, T 3.31, H 3.06, Q 4.03, Y 1.92
K10: I 2.57, L 1.72, N 3, T 2.2, H 2.7, P 2.77, C 2.04, S 2.73, R 2.47, Y 1.73, V 2.02, Q 1.95, D 3.67, G 3.58, E 3, F 2.1, W 2.05, A 2.1
Q22: A 2.36, D 1.77, M 1.79, G 2.89, F 2.02, H 2.52, E 1.5, I 1.35, C 2.48, L 2.1, K 2.03
E8: F 2.03, S 2.17, D 1.95, Q 2.12, M 1.62, H 1.75, K 2.12, C 2.09, I 1.9, P 1.66, A 2.18, Y 1.82, N 1.97, G 1.87, L 1.86, T 2.28, R 1.56
T4: Y 1.66, S 2.5, I 2.55, W 1.71, F 2.2, D 3.22, E 3.19, A 3.01, G 2.73, K 2.8, N 2.59, L 2.63, C 2.1, H 1.8, Q 2.89, V 2.87, M 2.7, P 2.87, R 2.79
Q19: F 1.91, V 1.81, Y 1.64, D 2.46, R 1.38, N 2.25, E 2.56, P 3.19, T 2.75, W 2.62, G 2.51, K 2.48, C 2.6, H 2.04, I 2.73, A 1.8
F13: K 3.59, C 3.56, R 3.91, W 1.68, G 4.6, L 2.72, S 4.52, Q 4.33, M 3.25, E 4.78, T 4.78, A 4.47, D 4.83, V 3.93, I 2.62, H 4.14, N 4.66, P 4.68, Y 2.62
K9: S 2.7, H 2.6, L 1.88, W 3.8, M 2.44, A 2.6, D 2.77, T 2.41, C 2.29, I 1.79, E 3.27, Y 2.2, R 2.74, Q 2.82, V 2.22, F 2.78, G 2.78, P 3.01
Q7: Y 2.12, G 1.83, L 3.44, K 1.96, W 3.76, N 3.1, S 2.86, V 3.28, R 2.29, M 2.46, H 2.32, T 3.54, P 2.31, I 4.42, E 2.76, D 3.02, F 2.02, C 2.83, A 2.16
Y21: M 1.98, E 2.11, I 1.84, A 3.38, V 2.32, F 1.76, Q 2.75, S 3.19, K 3.8, P 4.33, R 3.91, W 1.8, C 1.75, H 2.55, T 3.23, L 1.6, G 3.61, N 4.41
I18: H 3.6, E 2.2, Y 3.29, T 3.31, D 2.92, A 2.65, Q 1.81, V 3.12, C 2.67, N 3.57, F 2.74, L 2.3, S 2.94, G 3.67, P 4.54, R 3.4, M 2.22, W 2.7, K 2.42
E6: K 2, G 2.39, P 1.97, W 1.43, M 2.27, N 1.73, Q 1.75, T 1.7, L 1.8, R 1.88, H 1.71, I 1.62, C 1.83, D 2.12, A 2.24, F 1.9, V 1.81, S 2.09

From the supplement of paper PMC10567573
